These results are taken from PMC10625650, “The WW domain of IQGAP1 binds directly to the p110α catalytic subunit of PI 3-kinase” (The Biochemical journal, 2023).

The assay deals with T1, full-length untagged human p110α (catalytic subunit of PI 3-kinase) (human, UniProt P42336 1-1068, [35S]-methionine label).
T1 construct: human p110α (PIK3CA), full length, untagged; also called native p110α; unaltered wild-type p110α
Nature of the assay: pull-down; 25 μg GST or GST fusion protein purified from bacteria, bound to glutathione-Sepharose beads; 1 pmol 35S-labelled in vitro translated protein (partially purified by ammonium sulfate precipitation); binding buffer 20 mM Tris–HCl pH 7.1, 125 mM KOAc, 0.5 mM EDTA, 1 mM DTT, 0.1% Tween20, 12.5% glycerol; sedimentation, SDS–PAGE, autoradiography or phosphorimaging; percent binding against input. The settings on record: one partner purified.

T1 sequence (P42336 whole entry): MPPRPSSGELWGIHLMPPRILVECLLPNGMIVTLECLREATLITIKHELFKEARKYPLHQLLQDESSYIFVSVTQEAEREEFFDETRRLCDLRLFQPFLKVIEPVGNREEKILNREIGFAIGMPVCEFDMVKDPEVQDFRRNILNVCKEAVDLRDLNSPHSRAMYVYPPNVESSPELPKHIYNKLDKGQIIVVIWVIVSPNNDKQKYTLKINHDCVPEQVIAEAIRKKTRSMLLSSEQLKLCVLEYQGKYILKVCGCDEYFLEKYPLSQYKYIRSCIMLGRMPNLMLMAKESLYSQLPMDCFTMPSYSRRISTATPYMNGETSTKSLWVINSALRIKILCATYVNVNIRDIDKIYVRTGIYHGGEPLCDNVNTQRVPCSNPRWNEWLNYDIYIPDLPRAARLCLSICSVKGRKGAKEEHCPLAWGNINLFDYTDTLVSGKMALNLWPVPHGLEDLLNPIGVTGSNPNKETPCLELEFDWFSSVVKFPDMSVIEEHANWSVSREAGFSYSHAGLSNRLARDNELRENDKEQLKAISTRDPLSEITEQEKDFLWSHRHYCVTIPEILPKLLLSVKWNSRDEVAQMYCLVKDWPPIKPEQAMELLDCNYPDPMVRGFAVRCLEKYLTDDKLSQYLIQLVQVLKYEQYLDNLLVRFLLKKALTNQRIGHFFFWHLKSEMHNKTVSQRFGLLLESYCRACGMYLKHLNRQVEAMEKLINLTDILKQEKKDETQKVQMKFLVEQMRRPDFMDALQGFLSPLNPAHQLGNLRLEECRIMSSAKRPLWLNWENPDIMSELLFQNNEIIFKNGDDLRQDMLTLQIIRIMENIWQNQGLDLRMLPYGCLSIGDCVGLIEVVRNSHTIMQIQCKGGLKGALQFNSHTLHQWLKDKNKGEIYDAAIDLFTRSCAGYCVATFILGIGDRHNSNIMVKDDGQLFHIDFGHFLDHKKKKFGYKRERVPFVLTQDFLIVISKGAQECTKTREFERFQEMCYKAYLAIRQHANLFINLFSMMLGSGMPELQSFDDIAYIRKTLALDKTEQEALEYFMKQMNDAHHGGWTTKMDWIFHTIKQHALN

B1: GST-WW (WW domain of human IQGAP1 fused to GST) (domain or fragment, UniProt P46940 679-719, looked up)
chain: GDNNSKWVKHWVKGGYYYYHNLETQEGGWDEPPNFVQNSMQ
notes: human IQGAP1, residues 679-719 holding the WW domain (the results name the WW domain as residues 684-710); in plasmid pGEXLB; also called GST-WW fusion protein; wild-type GST-WW; source: expressed in bacteria, purified on glutathione-Sepharose; not shown: GST (Schistosoma japonicum), N-terminal, kept
As for B1, binding was characterised by a dissociation constant (Kd) of 130 µM.
